# Results from patent US20250215412A1 (NOVOZYMES A S, published 2025).
# Changes are numbered by the printed parent chain. Numbers in names are those of the source.
# T1: Chryseobacterium sp-62563 deamidase polypeptide (second polypeptide, deamidase domain), wildtype (Chryseobacterium sp-62563)
# T1 sequence: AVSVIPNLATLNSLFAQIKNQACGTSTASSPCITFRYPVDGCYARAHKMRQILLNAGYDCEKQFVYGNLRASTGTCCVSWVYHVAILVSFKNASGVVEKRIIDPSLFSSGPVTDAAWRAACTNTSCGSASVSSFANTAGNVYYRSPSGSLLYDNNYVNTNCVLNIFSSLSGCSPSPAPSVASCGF
# B1: Chryseobacterium sp-62563 propeptide V98H (protein)
# chain: NQDPNLVAKESNETAMKDFGKTVPVGIEKEDGKFKISFMVTAQPYEIKDSKENAAYISMIKTAVENETPIHVFLKANTNEIAKVDKATDDDIRYFKSHFTKEVKEENRK
# B2: Chryseobacterium sp-62563 propeptide V98A (protein)
# chain: B1 chain with H98A
# B3: Chryseobacterium sp-62563 propeptide F95H (protein)
# chain: B1 chain with F95H, H98V
# B4: Chryseobacterium sp-62563 propeptide K96N (protein)
# chain: B1 chain with K96N, H98V
# B5: Chryseobacterium sp-62563 propeptide D91S (protein)
# chain: B1 chain with D91S, H98V
# B6: Chryseobacterium sp-62563 propeptide K96L (protein)
# chain: B1 chain with K96L, H98V
# B7: Chryseobacterium sp-62563 propeptide V98G (protein)
# chain: B1 chain with H98G
# B8: Chryseobacterium sp-62563 propeptide S97R (protein)
# chain: B1 chain with S97R, H98V
# B9: Chryseobacterium sp-62563 propeptide F95I (protein)
# chain: B1 chain with F95I, H98V
# B10: Chryseobacterium sp-62563 propeptide T88R (protein)
# chain: B1 chain with T88R, H98V
# B11: Chryseobacterium sp-62563 propeptide F95K (protein)
# chain: B1 chain with F95K, H98V
# B12: Chryseobacterium sp-62563 propeptide V98C (protein)
# chain: B1 chain with H98C
# B13: Chryseobacterium sp-62563 propeptide P69T (protein)
# chain: B1 chain with P69T, H98V
# B14: Chryseobacterium sp-62563 propeptide K96M (protein)
# chain: B1 chain with K96M, H98V
# B15: Chryseobacterium sp-62563 propeptide K96Q (protein)
# chain: B1 chain with K96Q, H98V
# B16: Chryseobacterium sp-62563 propeptide D91Q (protein)
# chain: B1 chain with D91Q, H98V
# B17: Chryseobacterium sp-62563 propeptide D91M (protein)
# chain: B1 chain with D91M, H98V
# B18: Chryseobacterium sp-62563 propeptide I92G (protein)
# chain: B1 chain with I92G, H98V
# B19: Chryseobacterium sp-62563 propeptide T88V (protein)
# chain: B1 chain with T88V, H98V
# B20: Chryseobacterium sp-62563 propeptide F95V (protein)
# chain: B1 chain with F95V, H98V
# B21: Chryseobacterium sp-62563 propeptide D91H (protein)
# chain: B1 chain with D91H, H98V
# B22: Chryseobacterium sp-62563 propeptide T88G (protein)
# chain: B1 chain with T88G, H98V
# B23: Chryseobacterium sp-62563 propeptide I92L (protein)
# chain: B1 chain with I92L, H98V
# B24: Chryseobacterium sp-62563 propeptide K96C (protein)
# chain: B1 chain with K96C, H98V
# B25: Chryseobacterium sp-62563 propeptide F95A (protein)
# chain: B1 chain with F95A, H98V
# B26: Chryseobacterium sp-62563 propeptide K96Y (protein)
# chain: B1 chain with K96Y, H98V
# B27: Chryseobacterium sp-62563 propeptide F95W (protein)
# chain: B1 chain with F95W, H98V
# B28: Chryseobacterium sp-62563 propeptide V98E (protein)
# chain: B1 chain with H98E
# B29: Chryseobacterium sp-62563 propeptide F95M (protein)
# chain: B1 chain with F95M, H98V
# B30: Chryseobacterium sp-62563 propeptide P69Q (protein)
# chain: B1 chain with P69Q, H98V
# B31: Chryseobacterium sp-62563 propeptide F95Y (protein)
# chain: B1 chain with F95Y, H98V
# B32: Chryseobacterium sp-62563 propeptide Y94K (protein)
# chain: B1 chain with Y94K, H98V
# B33: Chryseobacterium sp-62563 propeptide D91G (protein)
# chain: B1 chain with D91G, H98V
# B34: Chryseobacterium sp-62563 propeptide T88K (protein)
# chain: B1 chain with T88K, H98V
# B35: Chryseobacterium sp-62563 propeptide K96F (protein)
# chain: B1 chain with K96F, H98V
# B36: Chryseobacterium sp-62563 propeptide K96T (protein)
# chain: B1 chain with K96T, H98V
# B37: Chryseobacterium sp-62563 propeptide P69S (protein)
# chain: B1 chain with P69S, H98V
# B38: Chryseobacterium sp-62563 propeptide F95N (protein)
# chain: B1 chain with F95N, H98V
# B39: Chryseobacterium sp-62563 propeptide F95T (protein)
# chain: B1 chain with F95T, H98V
# B40: Chryseobacterium sp-62563 propeptide T88I (protein)
# chain: B1 chain with T88I, H98V
# B41: Chryseobacterium sp-62563 propeptide T88H (protein)
# chain: B1 chain with T88H, H98V
# B42: Chryseobacterium sp-62563 propeptide K96E (protein)
# chain: B1 chain with K96E, H98V
# B43: Chryseobacterium sp-62563 propeptide F95R (protein)
# chain: B1 chain with F95R, H98V
# B44: Chryseobacterium sp-62563 propeptide I92K (protein)
# chain: B1 chain with I92K, H98V
# B45: Chryseobacterium sp-62563 propeptide I92S (protein)
# chain: B1 chain with I92S, H98V
# B46: Chryseobacterium sp-62563 propeptide I92M (protein)
# chain: B1 chain with I92M, H98V
# B47: Chryseobacterium sp-62563 propeptide K96V (protein)
# chain: B1 chain with K96V, H98V
# B48: Chryseobacterium sp-62563 propeptide F95L (protein)
# chain: B1 chain with F95L, H98V
# B49: Chryseobacterium sp-62563 propeptide Y94R (protein)
# chain: B1 chain with Y94R, H98V
# B50: Chryseobacterium sp-62563 propeptide F95S (protein)
# chain: B1 chain with F95S, H98V
# B51: Chryseobacterium sp-62563 propeptide K96W (protein)
# chain: B1 chain with K96W, H98V
# B52: Chryseobacterium sp-62563 propeptide K96I (protein)
# chain: B1 chain with K96I, H98V
# B53: Chryseobacterium sp-62563 propeptide I92A (protein)
# chain: B1 chain with I92A, H98V
# B54: Chryseobacterium sp-62563 propeptide K96H (protein)
# chain: B1 chain with K96H, H98V
# Target: T1, Chryseobacterium sp-62563 deamidase polypeptide (second polypeptide, deamidase domain), wildtype (Chryseobacterium sp-62563)
# Test: cell-based or functional assay
Binder,Relative activity of maturated deamidase (% initial rate),NanoDSF thermal unfolding temperature
B1,54,
B2,68,
B3,76,
B4,55,
B5,48,
B6,50,
B7,> 100,
B8,30,
B9,58,
B10,46,
B11,> 100,
B12,65,
B13,33,78.5 ° C.
B14,45,
B15,> 100,
B16,28,
B17,31,
B18,69,
B19,51,
B20,66,
B21,64,
B22,66,
B23,31,
B24,95,
B25,> 100,
B26,73,
B27,58,

Binder,Relative activity of maturated deamidase (% initial rate),NanoDSF thermal unfolding temperature
B28,> 100,
B29,51,
B30,> 100,74.1 ° C.
B31,27,
B32,49,
B33,56,
B34,33,
B35,95,
B36,34,
B37,,77.7 ° C.
B38,85,
B39,93,
B40,52,
B41,41,
B42,> 100,
B43,> 100,
B44,32,
B45,40,
B46,38,
B47,41,
B48,61,
B49,52,
B50,> 100,
B51,51,
B52,71,
B53,31,
B54,30,
